Laboratory results: patent US20260069689A1 (Regeneron, published 2026)

Molecular target: SARS-COV-2 RBD extracellular domain expressed with a C-terminal myc-myc-hexahistidine tag (SARS-COV-2 RBD-mmH) (SARS-CoV-2)
Assay: SPR Biacore, mAb captured on anti-hFc, RBD-mmH analyte, 37 C

Row | Binder | Kd [nM] | koff [s⁻¹] | kon [M⁻¹ s⁻¹] | t½ [min]
1 | mAb14283 (antibody, V domains shown) VH: QVQLQESGPGLVKPSGTLSLTCDVSGGSISSNNWWSWVRQRPGKGLQWIGEIYHNENTNYNPSLKSRVIMSIDKSKNQFSLKLTSVTAADTAVYYCARGDVLDWFDPWGQGTLVTVSS VL: QSALTQPASVSGSPGQSTTISCTGTSSDVGGYNYVSWYQQYPGKAPKLMIYDVTNRPSGVSHRFSGSKSGNTASLTISGLQAEDEADYYCSSYTSSSTVIFGGGTKLTVLG | 1.17 | 0.00179 | 1.54e+06 | 6.4
2 | mAb14289 (antibody, V domains shown) VH: QVQLVQSGPEVKKPGASVKVSCKASGYTFTSYAISWVRQAPGQGLEWMGWISAYNGNTNYAQKLQGRVTMTTDTFTSTAYMELRSLRSDDTAVYYCAVPADHITFDYWGQGTLVTVSS VL: EIVLTQSPGTLSLSPGERATLSCRASQSVSSYLAWYQQKPGQAPRLLIHGASSRATGIPDRFSGSGSGTDFTLTISRLEPEDFAVYYCQQYGSSFLTFGGGTKVEIKR | 1.46 | 0.00176 | 1.2e+06 | 6.5
3 | mAb14312 (antibody, V domains shown) VH: EVQLVESGGGLVQPGGSLRLSCAASGFTVSRSYMTWVRQAPGKGLEWVSVIFTGGRTDHADSVKGRFTISRHNSKNTLYLQMNSLRTEDTAVYYCARVAIVGATGAFDIWGQGTMVTVSS VL: QSVLTQPPSVSGAPGQRVTISCTGSSSNIGAGDDVHWYQQLPGTAPKLLIYGNSNRPSGVPDRFSGSKSGTSASLAITGLQAEDEADYYCQSYDSSLSGSVVFGGGTKLTVLG | 0.631 | 0.000988 | 1.57e+06 | 11.7
4 | mAb14257 (antibody, V domains shown) VH: EVQLVESGGGLVQPGGSLRLSCAASGFTVSRSYMNWVRQAPGKGLEWVSVVFTGGTTKHTDSVKGRFTISRDNSMNTLYLQMNSLRPEDTAVYYCARVAIVETTGAFDIWGQGTMVTVSS VL: QSVLTQPPSVSGAPGQRVTISCTGTSSNIGADFDVHWYQQFPGTAPKLLIYGHTNRPSGIPDRFSGSKSGTSASLAITGLQAEDEADYYCQSYDSSLSGSVVFGGGTKLTVLG | 2.34 | 0.00762 | 3.26e+06 | 1.5
5 | mAb13458 (antibody, V domains shown) VH: EVQLVESGGGLVQPGRSLRLSCAASGFTFDDYAMHWVRQAPGKGLEWVSGISWNSGSIGYADSVKGRFTISRDNAKNSLYLQMNSLRAEDTALYYCAKDIGITTPYWGQGTLVTVSS VL: AIQMTQSPSSLSASVGDRVTITCRASQDIRNDLGWYQQKPGKAPKLLIYSASSLQTGVPSRFSGSGSGTDFTLTISSLHPEDFATYYCLQDYWYTWTFGQGTKVEIKR | 1.54 | 0.00139 | 907000 | 8.3
6 | mAb13459 (antibody, V domains shown) VH: EVQLVESGGGLVQPGRSLRLSCAASGFTFDDYAMHWVRQAPGKGLEWVSGISWNSGSIGYADSVKGRFTISRDNAKNSLYLQMNSLRAEDTALYYCAKDIGITTPYWGQGTLVTVSS VL: AIQMTQSPSSLSASVGDRVTITCRASQDIRNDLGWYQQKPGKAPKLLIYSASSLQTGVPSRFSGSGSGTDFTLTISSLHPEDFATYYCLQDYNYVWTFGQGTKVEIKR | 2.6 | 0.00204 | 786000 | 5.7
7 | mAb14313 (antibody, V domains shown) VH: EVQLVESGGGLVQPGRSLRLSCVASGFTFDDSAMHWVRQPPGKGLEWVSGISWNSGIIGYAESVKGRFIISRDNAKNSLFLHMRGLRPEDTAVYYCARDRLELSYYYYGMDVWGQGTTVTVSS VL: not shown | 0.921 | 0.00259 | 2.81e+06 | 4.5
8 | mAb14294 (antibody, V domains shown) VH: EVQLVESGGGLVQPGGSLRLSCAASGFTFSNHWMDWVRQAPGKGLVWVSRINSDGSSTDYADSVRGRFTMSRDNAKNTLYLQMSSLRAEDTAVYYCAREGMIFGAVIIPGWYFDLWGRGALVTVSS VL: EIVLTQSPGTLSLSPGERATLSCRASQSVSSSQLAWYQQKPGQAPRLLIYGASSRATGIPDRFSGSGSGTDFTLTISRLEPEDFAVYYCQQYDSFGQGTKLEIKR | 0.984 | 0.00059 | 600000 | 19.6
9 | mAb14255 (antibody, V domains shown) VH: QVQLQESGPGLVKPSETLSLTCTVSGGSISGYYWSWIRQPPGKGLDWIGYIYYRGNTNYNPSLKSRVTISVDTSNNQFSLKLSSVTAADTAVYYCARYGEGYGDASGYHFDYWGQGTLVTVSS VL: QSALTQPASVSGSPGQSITISCTGTSSDVGSYNLVSWYQQHPGKAPKLMIYEDSKRPSGVANPFSGSKSGNTASLTISGLQAEDEADYYCSSYAGSSTWVFGGGTKLTVLG | 2.76 | 0.00535 | 1.94e+06 | 2.2
10 | mAb14315 (antibody, V domains shown) VH: QVQLVQSGAEVKKPGSSVKVSCKASGDTFSTYAINWVRQAPGQGLEWMGRFIHIFGTANYAQKFQGRVTITADESTSTAYMELRSLRSEDTAVYYCARDGVDYGDYRPDYWGQGTLVTVSS VL: EIVLTQSPGTLSLSPGERATLSCRASQSVSSNYLAWYQQKPGQAPRLLIYGASSRATGIPERFSGSGSGTDFTLTISRLEPEDFAVYYCQQYGSSLYTFGQGTKLEIKR | 2.26 | 0.000985 | 435000 | 11.7
11 | mAb14284 (antibody, V domains shown) VH: QITLKESGPTLVKPTQTLTLTCTFSGFSFSTSGVGVGWIRQPPGKTLEWLALIYWDDDKRYSPSLKSRLTITKDTSKNQVVLTMTNMDPVDTATYFCAHHGIPTIFGYWGQGALVTVSS VL: QSALTQPASVSGSPGQSITISCTGTSSDLGVFNYVSWYQQHPGKAPKLMIYEVTNRPSGVSNRFSGSKSGNTASLTISGLQAEDEADYYCSSYTTSSTVFGGGTKLTVLG | 0.94 | 0.000605 | 644000 | 19.1
12 | mAb14235 (antibody, V domains shown) VH: QITLKESGPTLVKPTQTLTLTCTFSGFSLNTGGVGVGWIRQPPGNALEWLALIYWDDDKRYNPSLKTRLTISKDTSKNQVVLTMTNMDPVDTATYFCAHLTIAVIVDFWGQGTLVTVSS VL: QSALTQPASVSGSPGQSITISCTATSSDVGTYNYVSWFQHHPGKAPKLMIYEVTNRPSGVSNRFSGSKSGNTASLTISGLQAEDEADYYCSSYTTTSIVFGGGTKLTVLG | 1.37 | 0.00109 | 793000 | 10.6
13 | mAb14258 (antibody, V domains shown) VH: QLQLQESGPGLVKPSETLSLICTGSGDSISSSHYYWGWIRQPPGKGLEWIGSTYFSGSTYYNPSLKSRVSISVDTSKNQVSLKLISVTAADTAVYYCAREMGATLGDYWGPGTLVTVSS VL: QSVLTQPPSASGTPGQRVTISCSGSSSNIGNNYVYWYQQFPGTTPRLLIYRNNERPSGVPDRFSGSKSGTSASLVISGLRSEDEADYYCAAWDDSLSAHYVFGTGTKVTVLG | 0.796 | 0.0017 | 2.14e+06 | 6.8
14 | mAb14247 (antibody, V domains shown) VH: QITLKESGPTLVKPTQTLTLTCTFSGFSLSTSAVGVGWIRQPPGKALEWLALIYWDDDKRYSPSLKSRLTITKDTSKNQLVLTMTNVDPVDTATYYCAHHTIQLIFDYWGQGTLVTVSS VL: QSALTQPASVSGSPGQSITISCTATSSDVGNYNYVSWYQQHPGKAPKLMIYEVSNRPSGVSNRFSGSKSGNTASLTISGLQAEDEADYYCSSYTSSSTPLVFGGGTKLTVLG | 1.95 | 0.00163 | 832000 | 7.1
